Measurements from publication PMC2788276 (Protein Science : A Publication of the Protein Society, 2009).

B1: (UCUAAAC)4 intergenic repeat RNA (ssRNA)
RNA: UCUAAACUCUAAACUCUAAACUCUAAAC
B2: HCoV‐OC43 N protein, residues 233–448 (domain or fragment)
chain: ADQIASLVLAKLGKDATKPQQVTKHTAKEVRQKILNKPRQKRSPNKQCTVQQCFGKRGPNQNFGGGEMLKLGTSDPQFPILAELAPTAGAFFFGSRLELAKVQNLSGNPDEPQKDVYELRYNGAIRFDSTLSGFETIMKVLNENLNAYQQQDGMMNMSPKPQRQRGHKNGQGENDNISVAVPKSRVQQNKSRELTAEDISLLKKMDEPYTEDTSEI

Assays:
[1] = target: HCoV-OC43 N233-300 (central linker) (Human coronavirus OC43, UniProt P33469 233-300); test: SPR
[2] = target: HCoV-OC43 N1-173 (N-terminal domain) (Human coronavirus OC43, UniProt P33469 1-173); test: SPR
[3] = target: HCoV-OC43 N301-448 (C-terminal domain) (Human coronavirus OC43, UniProt P33469 301-448); test: SPR
cross-linking = target: the molecule itself; test: cross-linking

Sequence of HCoV-OC43 N1-173 (N-terminal domain) (P33469 1-173): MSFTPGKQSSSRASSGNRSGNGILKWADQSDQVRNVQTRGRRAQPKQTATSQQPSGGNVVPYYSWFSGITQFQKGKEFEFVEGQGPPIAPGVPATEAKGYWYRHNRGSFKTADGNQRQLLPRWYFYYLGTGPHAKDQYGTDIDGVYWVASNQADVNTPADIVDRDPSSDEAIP

Row | Binder | Kd [1] [nM] | Kd [2] [nM] | binding result [3] | binding result (cross-linking)
1 | B1 | 64.1 ± 7.2 | 68.9 ± 8.4 | no binding | 
2 | B2 |  |  |  | binds
